Substitutions are numbered along the chain they refer to. Each block holds one molecule with its values, some of them ahead of it.
Assays:
[1] = target: T1, CD70 expressed on the surface of 786-O renal cell carcinoma cells (Homo sapiens, UniProt P32970); experiment: Flow cytometry binding to 786-O cells
T1 construct: natively expressing CD70+ human cancer cell line 786-0 cells; endogenous in cells; host or cells: 786-O (ATCC CRL-1932), A-498 (HTB-44), ACHN (CRL-1611), Caki-1 (HTB-46), Caki-2 (HTB-47)
T1 sequence (P32970 1-193): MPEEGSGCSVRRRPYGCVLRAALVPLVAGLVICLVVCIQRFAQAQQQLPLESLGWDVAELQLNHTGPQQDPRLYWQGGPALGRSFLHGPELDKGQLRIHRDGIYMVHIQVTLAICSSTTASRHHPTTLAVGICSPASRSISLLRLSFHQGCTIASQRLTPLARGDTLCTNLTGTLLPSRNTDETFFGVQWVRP
Protocol: Anti-CD70 antibodies were tested for binding to renal cell carcinoma cells expressing CD70 on their cell surface by flow cytometry.
The renal cell carcinoma cell lines A-498 (ATCC Accession No. HTB-44), 786-O (ATCC Accession No. CRL-1932), ACHN (ATCC Accession No. CRL-1611), Caki-1 (ATCC Accession No. HTB-46) and Caki-2 (ATCC Accession No. HTB-47) were each tested for antibody binding. Binding of the HuMAb 2H5 anti-CD70 human monoclonal antibody was assessed by incubating 1×10^5 cells with 2H5 at a concentration of 1 μg/ml. The cells were washed and binding was detected with a FITC-labeled anti-human IgG Ab. Flow cytometric analyses were performed using a FACSCalibur flow cytometry (Becton Dickinson, San Jose, Calif.). The anti-CD70 monoclonal antibody 2H5 bound to the renal carcinoma cell lines A-498, 786-O, ACHN, Caki-1 and Caki-2.
The renal cell carcinoma cell lines 786-O and A-498 were tested for binding of the HuMAb anti-CD70 human monoclonal antibodies 2H5, 8B5, 10B4 and 18E7 at different concentrations. Binding of the anti-CD70 human monoclonal antibodies was assessed by incubating 5×10^5 cells with antibody at a starting concentration of 50 μg/ml and serially diluting the antibody at a 1:3 dilution. The cells were washed and binding was detected with a PE-labeled anti-human IgG Ab. Flow cytometric analyses were performed using a FACSCalibur flow cytometry (Becton Dickinson, San Jose, Calif.). The results are shown in FIG. 18A (786-O) and FIG. 18B (A-498). […]
Binding of the HuMAb 2H5 and 69A7 anti-CD70 human monoclonal antibodies to the renal cell carcinoma cell line 786-O was assessed by incubating 2×10^5 cells with either 2H5 or 69A7 at a concentration of 10 μg/ml. […] The cells were washed and binding was detected with a FITC-labeled anti-human IgG Ab. […]
The renal cell carcinoma cell line 786-O was tested for binding of the HuMAb anti-CD70 human monoclonal antibody 69A7 at different concentrations. Binding of the anti-CD70 human monoclonal antibodies was assessed by incubating 5×10^5 cells with antibody at a starting concentration of 10 μg/ml and serially diluting the antibody at a 1:3 dilution. The cells were washed and binding was detected with a PE-labeled anti-human IgG Ab. […]
The Daudi lymphoma cell line and 786-O renal carcinoma cell were further tested for antibody binding. Binding of the HuMAb 69A7 anti-CD70 human monoclonal antibody was assessed by incubating 2×10^5 cells with 69A7 at a concentration of 1 μg/ml. The cells were washed and binding was detected with a FITC-labeled anti-human IgG Ab. […] The anti-CD70 monoclonal antibody 69A7 bound to the Daudi lymphoma cell line and 786-O renal carcinoma cell line, as measured by the mean fluorescent intensity (MFI) of staining. […]

[2] = target: T2, CD70 (Homo sapiens, UniProt P32970); experiment: Epitope binding experiments using BIAcore
T2 sequence (P32970 1-193): T1 sequence (P32970 1-193)
Protocol: Such cross-competing antibodies can be identified based on their ability to cross-compete with 2H5, 10B4, 8B5, 18E7, 69A7, 69A7Y or 1F4 in standard CD70 binding assays. For example, standard ELISA assays can be used in which a recombinant human CD70 protein is immobilized on the plate, one of the antibodies is fluorescently labeled and the ability of non-labeled antibodies to compete off the binding of the labeled antibody is evaluated. Additionally or alternatively, BIAcore analysis can be used to assess the ability of the antibodies to cross-compete.

[3] = system: 786-O human renal cancer cell line; experiment: Internalization by immunofluorescence staining; assay type: cell-based
Protocol: The 786-O human renal cancer cell line was used to test the internalization of HuMab anti-CD70 antibodies 69A7 and 2H5 upon binding to the cells using immuno-fluorescence staining. 786-O cells (1×10^4 cells per 100 μl per well in a 96-well plate) were harvested from a tissue culture flask by treatment with 0.25% Trypsin/EDTA, then incubated with each of the HuMab anti-CD70 antibodies at 5 μg/ml in FACS buffer (PBS+5% FBS, media) for 30 minutes on ice. A human IgG1 isotype control was used as a negative control. Following 2 washes with media, the cells were re-suspended in the media (100 μl per well) and then incubated with goat anti-human secondary antibody conjugated with PE (Jackson ImmunoResearch Lab) at 1:100 dilution on ice for 30 minutes. The cells were either immediately imaged for morphology and immunofluorescence intensity under a fluorescent microscope (Nikon) at 0 min or incubated at 37° C. for various times. […] Similar results were also obtained with FITC-direct conjugated HuMab anti-CD70 antibodies in the assays. […] At the 120 min timepoint, membrane fluorescence was not apparent, but instead appeared to be present in intracellular compartments.

- binding to 786-O at different concentrations (MFI) ([1]; 1:3 serial dilution from 50 μg/ml (69A7: from 10 μg/ml)): concentration dependent
- binding to 786-O cells ([1]; antibody 1 μg/ml, FITC-labeled anti-human IgG): bound
- binding to 786-O cells ([1]; antibody 10 μg/ml): bound
- epitope on CD70 [2]: distinct epitopes
B1: anti-CD70 human monoclonal antibody 69A7 (antibody, V domains shown)
VH: QVQLQESGPGLVKPSETLSLTCTVSGGSVSSDYYYWSWIRQPPGKGLEWLGYIYYSGSTNYNPSLKSRVTISVDTSKNQFSLKLRSVTTADTAVYYCARGDGDYGGNCFDYWGQGTLVTVSS
VL: EIVLTQSPATLSLSPGERATLSCRASQSVSSYLAWYQQKPGQAPRLLIFDASNRATGIPARFSGSGSGTDFTLTISSLEPEDFAVYYCQQRSNWPLTFGGGTKVEIK
notes: Human IgG from hybridoma; also called HuMAb 69A7; FITC-conjugated 69A7
- membrane fluorescence intensity ([3]; 30 min incubation at 37° C.): significantly decreased
- membrane fluorescence ([3]; 120 min timepoint): not apparent
- internalization upon binding ([3]; antibody 5 μg/ml, 37° C.): specifically internalized

B2: 2H5 NF: 2H5 HuMAb lacking fucosyl residues, expressed in CHO cell line Ms704-PF (antibody, V domains shown)
VH: QVQLVESGGGVVQPGRSLRLSCAASGFTFSSYIMHWVRQAPGKGLEWVAVISYDGRNKYYADSVKGRFTISRDNSKNTLYLQMNSLRAEDTAVYYCARDTDGYDFDYWGQGTLVTVSS
VL: B1 VL with F49Y, S92T
- relative binding to 786-0 cells ([1]; 30 to 0.01 ug/ml, flow cytometry): binds at lower concentration than 1F4 and 1F4 NF

— patent US20100150950A1, “HUMAN ANTIBODIES THAT BIND CD70 AND USES THEREOF” (Medarex, Inc., priority 2006, published 2010)
